Laboratory results reported in the supplement of paper PMC9170038.

Test system: MS2 coat protein
Assay: apparent KD of MS2 coat protein; designed switch direction (-1 OFF switch, 1 ON switch): -1; higher = weaker reporter binding
How it was run: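 Three titration conditions were used: no input, 200 uM small-molecule ligand, and an oligonucleotide input. In each, SNAP-549-labelled MS2 coat protein was raised from 0.7 or 1.5 nM, doubling, to 3 µM over designed RNA switches transcribed on Illumina chips by stalled E. coli RNA polymerase. Curve fits of normalised cluster fluorescence gave values whose per-design median over clusters is the apparent KD.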

[1] = input ligand: microRNA oligo, concentration not stated
[2] = Eterna round: R95, input ligand: FMN 200 uM
[3] = Eterna round: R95, input ligand: microRNA oligo, concentration not stated
[4] = Eterna round: R95, input ligand: none

| Sequence | apparent KD of MS2 coat protein (input ligand: FMN 200 uM) [µM] | apparent KD of MS2 coat protein (input ligand: none) [µM] | apparent KD of MS2 coat protein [3] [µM] | other results |
| --- | --- | --- | --- | --- |
| ACAUGAGGAUCACCCAUGUAAUCAUGAUGGCUGAUGUAGAGCUAGGAUAUGAGUGGCUUUCUAUCUCAGAAGGAGCAAGACUGG [Deportation 40 - Jieux - Exclusion NG 3] (Eterna round: R96, puzzle: Exclusion NG 3) | 0.0441 | 0.0368 |  | apparent KD of MS2 coat protein [1]: 0.0316 µM |
| ACAAGCGUUUUGCUCGUAAAGUAGGAACGCGAGAGCGGCACAUGAGGAUCACCCAUGUAGAGGCAGUUGGUGGAGAU [JR_SV3TOV2_Sub030] (puzzle: Sensor v3, turn-off variant 2) |  |  | 0.0242 | apparent KD of MS2 coat protein [2]: 0.0245 µM; apparent KD of MS2 coat protein [4]: 0.0253 µM |
| GCAAGCUUAAUCUGUAUGAACAUGAGGAUCACCCAUGUAUAAGGUAAUUCUGUUGGGUUUUUUAUUGCUCGUCUUAU [JR_STOV1_Sub026] (Eterna round: R97, puzzle: Sensor, turn-off variant 1) | 0.0718 | 0.0769 |  |  |
| AACCGCGGAGGAUAUACACGGUGAUACUGAACUCCGGCACGACAUGAGGAUCACCCAUGUAGAAGGCCGAAUAU [EX2 B.13] (Eterna round: R97, puzzle: Exclusion 2) | 0.151 | 0.0213 |  |  |
| GGAAUACAUGAGGAUCACCCAUGUAAGGAUAUGCUGAAUAACACGGAAUUAACGUGCAGCAGAAGGUACAAAGG [Mat - Mod of my Eli Mod D43] (puzzle: Exclusion 1) |  |  | 0.0633 | apparent KD of MS2 coat protein [2]: 0.0628 µM; apparent KD of MS2 coat protein [4]: 0.113 µM |
| AAAAAACAUGAGGAUCACCCAUGUAAGGAUAUCUAAAAUAAAAGAAAAAUAAAGAAAAGGAGAAGGUACAAGGA [JL wbt mod 25] (Eterna round: R96, puzzle: Exclusion 1) | 0.0325 | 0.0298 |  | apparent KD of MS2 coat protein [1]: 0.0234 µM |
| AGCUGUGGCCGAGGAUAUCUGAACUCAAUAACCGAAAUAUAAUCGGACAUGAGGAUCACCCAUGUAGAGAAGGCGGUCUCAGCA [Eli eng2 - 080] (Eterna round: R96, puzzle: Exclusion NG 2) |  |  |  | apparent KD of MS2 coat protein [1]: 0.0242 µM |
| UUGGUGUCAGGAUAUGCACAGGUCGCACAAAUUGCAGCCUAGCAGAAGGGACAUGAGGAUCACCCAUGUACUCU [EX4 B.21] (Eterna round: R97, puzzle: Exclusion 4) | 0.03 | 0.0188 |  |  |
| CCUCUACAUGAGGAUCACCCAUGUGAGGAUAUCAAAGUCAGAGCGGCUCUCUGACUCAUGAGAAGGUGCAUGAA [EX1 A.13] (Eterna round: R97, puzzle: Exclusion 1) | 0.0306 | 0.0216 |  |  |
| UUUUACAGAGGAUAUGCGAAUAAAUAAAACUUUUUUUUUUAACAUGAGGAUCACCCAUGUAGAAGGCUGAUUUU [Ex2 #25] (Eterna round: R97, puzzle: Exclusion 2) | 0.04 | 0.0484 |  |  |
| UUUUAACAUGAGGAUCACCCAUGUGAGGAUAUCGAAAUUUAUAUUAAUAUUUUUAAAACGAGAAGGCACAUUUU [JMF 67] (puzzle: Exclusion 1) |  |  | 0.0535 |  |
| AUAAUGUAAGGAUAUCAGUCGACUAGCCUCGGCUAGUCGACUGAGAAGGUACAUGAGGAUCACCCAUGUGAAUA [E4/16-A2] (Eterna round: R97, puzzle: Exclusion 4) | 0.228 | 0.0521 |  |  |
| UAUAUAUAGUAAGGAUAUGUAAUUCUUUUAUAAACAGAAGGUACUGACAUGAGGAUCACCCAUGUUUUAGUGUGGGCAUGUAGA [JMF's solution 34] (Eterna round: R96, puzzle: Exclusion NG 1) |  |  |  | apparent KD of MS2 coat protein [1]: 0.0531 µM |
| UCACAGGCUGUGGGUGGUGACAUGAGGAUCACCCAUGUUUUGCUCGUCUUGUGCCGGGCCCGGCGCCCGGGCCCGGC [-41.8, -69.2, A 10%] (Eterna round: R97, puzzle: Sensor, turn-off variant 1) | 0.575 | 1.21 |  |  |
| CCGGCAUGGUGCGGUAGUUGUACAACAUGAGGAUCACCCAUGUAGGAUAUGCGCGUGGUCACGCCGCAGAAGGACAACGUAUGG [Random, 25% A] (Eterna round: R96, puzzle: Exclusion NG 3) | 0.668 | 0.096 |  | apparent KD of MS2 coat protein [1]: 0.0894 µM |
| GCUGGUCGAGGAUAUACAAUCGUGCUUCGGCACGUAAGGUCACAUGAGGAUCACCCAUGUAGAAGGCGACCAGC [E2/2-A2] (Eterna round: R97, puzzle: Exclusion 2) | 0.175 | 0.0309 |  |  |
| CACGGCUUAGGAUAUACAUGAGGAUCACCCAUGUGGGAAAGCCAAGGCGUGGUAAAGUGUAGAAGGAAGAAGGA [Solaedra] (puzzle: Exclusion 3) |  |  | 0.0125 |  |
| UAUUAGCAAGCAAGAUCCCACAUGAGGAUCACCCAUGUGCUCGUCGCAUCCAGAAUUACUGGGUGCGCUCGUCUUAU [Winner reversed engineered 16] (Eterna round: R97, puzzle: Sensor, turn-off variant 1) | 0.168 | 0.169 |  |  |

| Sequence | apparent KD of MS2 coat protein (input ligand: FMN 200 uM) [µM] | apparent KD of MS2 coat protein (input ligand: none) [µM] | apparent KD of MS2 coat protein [3] [µM] | other results |
| --- | --- | --- | --- | --- |
| ACAAGCGUUAAGGAUAUACUGCCCUCAUUCUCGGUAGAAGGUAACACUUGAGGAUCACCCAAGUGAAAACCUGA [Erxeesis] (Eterna round: R97, puzzle: Exclusion 6) | 0.0106 | 0.00967 |  |  |
| CCGGUUGGCGCAGGAUAUACAUGAGGAUCACCCAUGUUGAUGAGGAUCACCCAUCAGUUUUUGUUGUAGAAGGGUGGCCCGGCC (Eterna round: R96, puzzle: Exclusion NG 2) |  |  |  | apparent KD of MS2 coat protein [1]: 0.0162 µM |
| GGCAUGUAAGGAUAUGUGAAGGGAAGGAGAGGGAGAGGGAAGCAGAAGGUACAUGAGGAUCACCCAUGUAAGGG [AK-MS2ROC-r4-exclusion4-5.1] (Eterna round: R97, puzzle: Exclusion 4) | 0.203 | 0.108 |  |  |
| CCGCAAAUGCAGGAUAUCGUAUCGGAUACGAUACGAGAAGGGCGUACAUGAGGAUCACCCAUGUGUCCUAGCGG [Fiskers Ex 6 - 42] (puzzle: Exclusion 6) |  |  | 0.0166 |  |
| CUUAGACAUGAGGAUCACCCAUGUGAGGAUAUGAAAUUAAUUAAUUAUGAAGUAUGAAUCAGAAGGCACAUAUG [Mat - Mod of Hyphema D35] (puzzle: Exclusion 1) |  |  | 0.0786 | apparent KD of MS2 coat protein [2]: 0.0717 µM; apparent KD of MS2 coat protein [4]: 0.118 µM |
| AUUAAAGACCGAGGAUAUCGAGGAAAUACCCUGCGAGAAGGCGGGUACUCGGACGAUUCGACAUGAGGAUCACCCAUGUGCACA [Atrivece] (Eterna round: R96, puzzle: Exclusion NG 1) | 0.0266 | 0.0259 |  | apparent KD of MS2 coat protein [1]: 0.0245 µM |
| UCACAAGCUGUGGGUGGUGACAUGAGGAUCACCCAUGUUUUGCUCGUCUUGUGCCGGGCCCGGCGCCCGGGCCCGGC [-42.1, -69.5, A 12%] (Eterna round: R97, puzzle: Sensor, turn-off variant 1) | 0.929 |  |  |  |
| GAUCCUUAAGUCAGGAUAUCAAGCAAACUCAAAAUUGAGAAGGGACAUGAGGAUCACCCAUGUCACCGAAAUAA [Reteisus] (puzzle: Brourd's mod of Exclusion 4) |  |  | 0.00898 | apparent KD of MS2 coat protein [2]: 0.0101 µM; apparent KD of MS2 coat protein [4]: 0.0106 µM |
| AUAAGUAUGAAGGAUAUGCGCGAGCCAGCUUGGGCAGAAGGUUAAACAUGAGGAUCACCCAUGUGGAAAUCCGA [Eternabot (Original) Solution 34] (Eterna round: R97, puzzle: Exclusion 6) | 0.0329 | 0.0217 |  |  |
| CCAUCGAGUGUGAGGAUAUGCUGUUCCUAAGAGCAGCAGAAGGCACAUGAGGAUCACCCAUGUGGAUACGGUGG [Mat - Exclusion 4 - JL Mod - D81] (puzzle: Brourd's mod of Exclusion 4) |  |  | 0.0292 | apparent KD of MS2 coat protein [2]: 0.172 µM; apparent KD of MS2 coat protein [4]: 0.0311 µM |
| UAUAUAUAGUAAGGAUAUGUAUAUAAUUUAUAAACAGAAGGUACUGACAUGAGGAUCACCCAUGUUUUAGUGUGGGCAUGUAGA [JMF's solution 55] (Eterna round: R96, puzzle: Exclusion NG 1) |  |  |  | apparent KD of MS2 coat protein [1]: 0.0644 µM |
| UGCAUGUCAGGAUAUAUUAGUACACUAGUCAGUCUAGGUGCGUAGAAGGGACAUGAGGAUCACCCAUGUGACAU [Eternabot (L2) Solution 1] (Eterna round: R97, puzzle: Exclusion 4) | 0.143 | 0.0649 |  |  |
| GCACUGCGAGGAUAUACAUGAGGAUCACCCAUGUAUCGGUAGUCAAGGUUAAUUUAAGGUAGAAGGCGCGUAAA [JR_Ex3_Sub005] (Eterna round: R97, puzzle: Exclusion 3) | 0.0274 | 0.0235 |  |  |
| CAGUACUGAGGAUAUACAUGAGGAUCACCCAUGUGUUCCAGCUAGGAUACUAGCAAAUGUAGAAGGCAGUACUG [Mat - Exclusion 3 - Eli Mod - D8] (Eterna round: R97, puzzle: Exclusion 3) | 0.0629 | 0.227 |  |  |
| CGUAUCUUUCACGUGAGUAGUGGGUGCAACAGGUGGGUCACAUGAGGAUCACCCAUGUACUCACUUGCUCGUCUUAU [Grok-var2-07] (puzzle: Sensor v3, turn-off variant 2) |  |  | 0.014 | apparent KD of MS2 coat protein [2]: 0.024 µM; apparent KD of MS2 coat protein [4]: 0.0218 µM |
| CCCUCACAUGAGGAUCACCCAUGUCAGGAUAUCUCACAUCGGCCUUAGGCCGAUGUCUAGAGAAGGGACGUAUC [Ceonte] (puzzle: Exclusion 1) |  |  | 0.0229 |  |
| GUAAAGUGAGGAUAUGGUAAAGUAAUUAUUUAGUAAUUAAUCCAGAAGGCACAUGAGGAUCACCCAUGUAAAUG [Mat - Exclusion 4 - D96] (puzzle: Exclusion 4) |  |  | 0.0261 | apparent KD of MS2 coat protein [2]: 0.0446 µM; apparent KD of MS2 coat protein [4]: 0.0287 µM |
